Tests used:
[1] = target: FGFR3 (UniProt P22607); test: phosphorylation enrichment, bacterial display (enrichment ratio); higher = better substrate or ligand; peptides without Tyr show the background
[2] = system: Fer (mouse); test: as above
[3] = target: Fes (UniProt P07332); test: as above
[4] = target: Hck (UniProt P08631); test: as above
[5] = system: AncSZ; test: as above
[6] = target: MERTK (UniProt Q12866); test: as above
[7] = system: c-Abl (mouse); test: as above
[8] = target: Jak2 (UniProt O60674); test: as above
[9] = target: FGFR1 (UniProt P11362); test: as above
[10] = target: Fyn (UniProt P06241); test: as above
[11] = target: EPHB2 (UniProt P29323); test: as above
[12] = system: c-Src; test: as above
[13] = target: EPHB1 (UniProt P54762); test: as above
[14] = target: c-Src SH2; test: SH2 binding enrichment of the phosphorylated peptide, bacterial display (enrichment ratio); higher = better substrate or ligand; peptides without Tyr show the background
[15] = target: SHP2-C SH2; test: as above
[16] = target: Grb2 SH2 (UniProt P62993); test: as above
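Throughout, for SH2 binding enrichment of the phosphorylated peptide, bacterial display: peptide library displayed on the E. coli surface as eCPX fusions, selected cells deep-sequenced, score is each peptide's frequency after selection divided by its frequency in the input.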
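Throughout, for phosphorylation enrichment, bacterial display: 11-residue human phosphosite peptides and single-mutation variants displayed on the E. coli surface, counted by deep sequencing, each peptide's frequency after selection divided by its frequency in the unselected input library; frequency after pTyr selection over input frequency; kinase dosed for 20-30% of maximal phosphorylation in three min.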

Sequence of Fyn (P06241 whole entry, looked up): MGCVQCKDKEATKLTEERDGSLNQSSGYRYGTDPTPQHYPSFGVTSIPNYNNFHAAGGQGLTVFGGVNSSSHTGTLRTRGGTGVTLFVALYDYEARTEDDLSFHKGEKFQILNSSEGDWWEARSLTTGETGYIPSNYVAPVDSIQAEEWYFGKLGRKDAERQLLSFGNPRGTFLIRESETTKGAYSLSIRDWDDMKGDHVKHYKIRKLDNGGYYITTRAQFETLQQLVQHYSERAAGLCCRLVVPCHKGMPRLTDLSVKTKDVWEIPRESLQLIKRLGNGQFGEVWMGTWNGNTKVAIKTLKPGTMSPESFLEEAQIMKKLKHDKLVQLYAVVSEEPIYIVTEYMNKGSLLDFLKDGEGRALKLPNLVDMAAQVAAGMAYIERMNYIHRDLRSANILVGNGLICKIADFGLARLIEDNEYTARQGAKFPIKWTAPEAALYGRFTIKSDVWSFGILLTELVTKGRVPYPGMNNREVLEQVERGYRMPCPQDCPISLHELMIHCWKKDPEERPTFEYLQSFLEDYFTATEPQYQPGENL
Sequence of EPHB1 (P54762 whole entry, looked up): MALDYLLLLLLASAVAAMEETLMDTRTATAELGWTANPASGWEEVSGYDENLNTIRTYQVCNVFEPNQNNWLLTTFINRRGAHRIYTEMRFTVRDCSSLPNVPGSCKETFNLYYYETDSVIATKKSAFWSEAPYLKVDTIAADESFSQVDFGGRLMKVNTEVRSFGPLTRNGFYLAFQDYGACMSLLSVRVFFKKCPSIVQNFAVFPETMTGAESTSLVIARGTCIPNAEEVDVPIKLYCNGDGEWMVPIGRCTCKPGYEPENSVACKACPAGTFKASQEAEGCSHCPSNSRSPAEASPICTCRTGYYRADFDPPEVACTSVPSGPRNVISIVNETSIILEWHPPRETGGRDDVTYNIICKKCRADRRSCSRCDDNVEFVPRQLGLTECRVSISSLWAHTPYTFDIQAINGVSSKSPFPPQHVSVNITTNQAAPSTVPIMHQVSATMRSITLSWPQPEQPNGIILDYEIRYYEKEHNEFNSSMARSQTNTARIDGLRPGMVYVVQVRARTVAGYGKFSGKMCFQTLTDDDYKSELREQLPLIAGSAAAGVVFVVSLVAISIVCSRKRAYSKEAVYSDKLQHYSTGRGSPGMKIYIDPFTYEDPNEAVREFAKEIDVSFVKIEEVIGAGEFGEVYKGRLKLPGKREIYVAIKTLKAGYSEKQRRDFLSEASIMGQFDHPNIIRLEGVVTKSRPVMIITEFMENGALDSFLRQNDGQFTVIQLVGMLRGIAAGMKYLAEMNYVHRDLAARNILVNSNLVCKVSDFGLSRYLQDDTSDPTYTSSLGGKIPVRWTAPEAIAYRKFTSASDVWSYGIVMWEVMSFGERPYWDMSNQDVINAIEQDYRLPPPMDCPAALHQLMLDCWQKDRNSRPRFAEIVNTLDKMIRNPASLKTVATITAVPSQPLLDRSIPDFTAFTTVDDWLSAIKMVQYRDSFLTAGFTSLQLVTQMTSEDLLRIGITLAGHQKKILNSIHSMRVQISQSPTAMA
Sequence of FGFR1 (P11362 whole entry, looked up): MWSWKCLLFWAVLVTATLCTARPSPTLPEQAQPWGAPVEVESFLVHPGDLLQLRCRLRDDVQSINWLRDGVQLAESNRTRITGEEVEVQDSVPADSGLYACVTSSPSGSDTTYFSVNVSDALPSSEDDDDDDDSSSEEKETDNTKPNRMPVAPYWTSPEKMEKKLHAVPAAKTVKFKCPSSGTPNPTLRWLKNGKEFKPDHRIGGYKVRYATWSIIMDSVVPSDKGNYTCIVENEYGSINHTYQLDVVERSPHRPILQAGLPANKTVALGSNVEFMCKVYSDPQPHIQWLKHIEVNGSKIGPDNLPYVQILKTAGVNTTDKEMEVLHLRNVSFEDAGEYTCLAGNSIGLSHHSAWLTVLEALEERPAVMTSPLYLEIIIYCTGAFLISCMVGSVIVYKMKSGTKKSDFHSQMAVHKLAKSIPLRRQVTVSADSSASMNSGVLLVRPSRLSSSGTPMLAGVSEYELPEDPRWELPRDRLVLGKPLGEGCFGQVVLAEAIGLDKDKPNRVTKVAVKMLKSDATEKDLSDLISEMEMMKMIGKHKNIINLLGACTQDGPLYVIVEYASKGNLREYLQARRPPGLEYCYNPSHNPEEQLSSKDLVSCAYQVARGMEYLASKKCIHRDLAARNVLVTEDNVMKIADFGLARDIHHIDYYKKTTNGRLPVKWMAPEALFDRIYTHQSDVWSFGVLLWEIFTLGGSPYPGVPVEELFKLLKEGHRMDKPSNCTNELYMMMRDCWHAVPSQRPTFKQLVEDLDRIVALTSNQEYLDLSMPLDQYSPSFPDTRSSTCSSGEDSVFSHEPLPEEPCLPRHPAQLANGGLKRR
Sequence of Hck (P08631 whole entry, looked up): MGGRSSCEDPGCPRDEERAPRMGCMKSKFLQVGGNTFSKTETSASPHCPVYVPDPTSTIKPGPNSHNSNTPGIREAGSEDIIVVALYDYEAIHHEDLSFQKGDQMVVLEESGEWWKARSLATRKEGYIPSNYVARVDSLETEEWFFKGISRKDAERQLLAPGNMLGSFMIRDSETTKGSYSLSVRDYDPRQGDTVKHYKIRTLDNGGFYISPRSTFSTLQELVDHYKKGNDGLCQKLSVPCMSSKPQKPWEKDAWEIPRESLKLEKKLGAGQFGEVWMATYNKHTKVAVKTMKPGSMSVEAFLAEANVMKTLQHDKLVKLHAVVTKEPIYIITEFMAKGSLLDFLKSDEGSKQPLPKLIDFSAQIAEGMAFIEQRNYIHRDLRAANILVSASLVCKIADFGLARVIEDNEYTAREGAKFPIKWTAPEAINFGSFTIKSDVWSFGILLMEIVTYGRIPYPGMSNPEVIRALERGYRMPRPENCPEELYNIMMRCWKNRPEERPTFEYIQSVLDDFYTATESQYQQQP
Sequence of FGFR3 (P22607 whole entry, looked up): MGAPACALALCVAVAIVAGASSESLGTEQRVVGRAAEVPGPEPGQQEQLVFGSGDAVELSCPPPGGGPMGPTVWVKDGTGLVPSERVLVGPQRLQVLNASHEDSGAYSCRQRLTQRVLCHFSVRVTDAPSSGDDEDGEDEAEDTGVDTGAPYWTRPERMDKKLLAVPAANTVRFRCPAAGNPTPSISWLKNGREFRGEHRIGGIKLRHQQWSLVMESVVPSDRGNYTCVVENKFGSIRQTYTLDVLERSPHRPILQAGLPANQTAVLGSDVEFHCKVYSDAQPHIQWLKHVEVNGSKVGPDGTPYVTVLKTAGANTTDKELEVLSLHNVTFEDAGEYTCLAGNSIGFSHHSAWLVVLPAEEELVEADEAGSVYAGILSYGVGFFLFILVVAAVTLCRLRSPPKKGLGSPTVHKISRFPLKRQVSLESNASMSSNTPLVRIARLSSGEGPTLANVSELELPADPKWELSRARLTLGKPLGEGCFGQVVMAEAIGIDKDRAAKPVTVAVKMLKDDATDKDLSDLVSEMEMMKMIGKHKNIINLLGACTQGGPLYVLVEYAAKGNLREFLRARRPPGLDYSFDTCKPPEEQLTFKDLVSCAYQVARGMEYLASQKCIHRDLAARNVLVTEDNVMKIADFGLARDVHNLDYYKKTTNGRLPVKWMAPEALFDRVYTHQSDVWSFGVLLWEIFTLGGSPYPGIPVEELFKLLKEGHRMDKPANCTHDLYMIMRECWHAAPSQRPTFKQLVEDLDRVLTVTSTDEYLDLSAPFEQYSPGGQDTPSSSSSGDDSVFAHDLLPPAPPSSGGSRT
Sequence of MERTK (Q12866 whole entry, looked up): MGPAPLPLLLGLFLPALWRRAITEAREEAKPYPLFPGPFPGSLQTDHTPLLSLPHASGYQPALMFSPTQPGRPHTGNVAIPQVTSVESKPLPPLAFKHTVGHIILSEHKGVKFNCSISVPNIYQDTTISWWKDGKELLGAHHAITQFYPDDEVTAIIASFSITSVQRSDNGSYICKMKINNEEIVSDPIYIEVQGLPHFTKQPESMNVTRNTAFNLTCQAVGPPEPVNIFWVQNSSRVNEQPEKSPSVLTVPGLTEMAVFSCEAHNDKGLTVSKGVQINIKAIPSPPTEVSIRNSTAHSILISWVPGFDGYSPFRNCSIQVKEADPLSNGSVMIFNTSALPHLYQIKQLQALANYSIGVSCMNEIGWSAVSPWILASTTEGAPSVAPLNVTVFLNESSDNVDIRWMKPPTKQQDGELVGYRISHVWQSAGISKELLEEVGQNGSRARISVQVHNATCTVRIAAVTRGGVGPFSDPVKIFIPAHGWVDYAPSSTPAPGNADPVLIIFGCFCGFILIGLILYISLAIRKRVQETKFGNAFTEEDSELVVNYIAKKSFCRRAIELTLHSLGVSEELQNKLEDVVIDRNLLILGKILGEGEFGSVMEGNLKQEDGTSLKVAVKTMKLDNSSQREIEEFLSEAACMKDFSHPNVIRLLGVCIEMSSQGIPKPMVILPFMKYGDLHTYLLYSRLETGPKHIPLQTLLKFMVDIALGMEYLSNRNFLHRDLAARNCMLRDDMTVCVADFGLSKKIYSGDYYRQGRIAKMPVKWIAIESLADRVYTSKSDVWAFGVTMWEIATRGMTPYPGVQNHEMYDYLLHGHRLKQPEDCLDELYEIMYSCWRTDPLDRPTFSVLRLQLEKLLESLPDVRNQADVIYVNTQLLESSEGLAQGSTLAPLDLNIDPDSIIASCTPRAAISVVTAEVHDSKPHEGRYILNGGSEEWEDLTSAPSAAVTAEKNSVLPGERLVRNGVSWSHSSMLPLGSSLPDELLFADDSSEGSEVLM
Sequence of Grb2 SH2 (P62993 whole entry, looked up, the tested form may be a part): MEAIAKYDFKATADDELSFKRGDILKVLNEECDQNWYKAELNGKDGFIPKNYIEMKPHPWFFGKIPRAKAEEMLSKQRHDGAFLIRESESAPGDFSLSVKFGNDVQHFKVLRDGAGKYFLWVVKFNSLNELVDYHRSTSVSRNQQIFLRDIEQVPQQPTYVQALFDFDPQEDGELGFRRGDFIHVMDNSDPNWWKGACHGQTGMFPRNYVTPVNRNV

Sequence	phosphorylation enrichment [1]	phosphorylation enrichment [2]	phosphorylation enrichment [3]	phosphorylation enrichment [4]	phosphorylation enrichment [5]	phosphorylation enrichment [6]	phosphorylation enrichment [7]	phosphorylation enrichment [8]	phosphorylation enrichment [9]	phosphorylation enrichment [10]	phosphorylation enrichment [11]	phosphorylation enrichment [12]	phosphorylation enrichment [13]	SH2 binding enrichment [14]	SH2 binding enrichment [15]	SH2 binding enrichment [16]
RGNKEYEEEKR [LENG1_Y96]	0.686	0.394	0.756	0.737	0.723	0.314	0.458	0.822	0.407	0.534	0.493	0.323	0.519	0.538	0.739	0.863
RGRDSYGGPPR [RBMX_Y190]	0.563	0.589	0.734	0.64	0.744	0.632	0.934	0.557	0.604	0.721	0.613	0.8	0.427	0.519	0.82	1.1
RGRKVYLEGGF [PRIM2_Y201_D204G]	0.446	0.855	0.642	0.858	0.787	0.972	0.719	0.796	0.355	0.351	0.431	0.803	0.532	0.479	0.27	0.941
RGRSTYFWPSP [GAGE12J_Y9_R13S_YF]	0.615	0.504	0.564	0.824	0.669	0.947	0.711	0.673	0.49	0.511	0.621	0.505	0.468	0.491	0.524	0.557
RGYRVYYTPDS [PTPRF_Y450]	0.634	1.11	1.07	1.37	1.22	3.59	1.3	1.93	0.784	0.979	1.04	0.947	1.24	5.05	1.27	0.707
RHEASYSSDSE [REPS1_Y116_A113E]	0.841	0.777	1.19	0.954	1.03	0.461	0.662	0.784	0.722	0.845	0.591	0.427	0.837	0.634	0.686	0.861
RHLREYPDLLN [DES_Y388_Q389P]	0.71	0.352	0.822	0.53	0.695	0.569	0.404	0.73	0.584	0.389	0.463	0.453	0.375	1.09	0.878	1.25
RHLREYQDLLI [DES_Y388_N393I]	0.813	0.636	1.21	0.592	0.912	0.482	0.708	0.74	0.899	0.655	0.744	0.482	1.02	1.79	0.851	1.59
RHPEVYHHLGV [NVL_Y290]	0.602	0.423	0.787	1.09	0.778	0.537	0.701	0.823	1.08	0.419	0.419	0.632	2.11	1.05	1.17	1
RHPLEYLRQFP [NARS2_Y138_YF]	0.365	0.275	0.612	1.38	0.605	0.33	0.554	0.66	0.369	0.342	0.494	0.409	0.372	0.984	1.28	1.49
RIVTTYIWERE [DNM2_Y463_R465W]	0.862	0.538	1.31	0.619	1.82	0.403	0.745	0.989	0.595	0.712	0.455	0.405	0.526	0.909	0.846	1.16
RKKEEYKMAPF [F8_Y1990_L1994P_YF]	0.446	0.346	0.623	0.373	0.574	0.422	0.371	0.316	0.602	0.558	0.261	0.469	0.299	0.407	0.905	1.06
RLIEGYTGPFK [ZNF862_Y181]	1.29	1.21	1.75	1.3	1.59	1.23	1.12	1.79	1.13	1.1	0.927	1.29	1.07	0.472	0.862	0.808
RLLRGYDQFAF [HLA-B_Y137_H137Y_YF]	0.627	0.696	1.21	0.664	0.885	0.645	0.798	0.785	0.617	0.591	0.725	0.542	0.505	0.999	1.25	1.16
RLLVDYPWTQR [HBB_Y36_V35D]	0.75	0.45	0.759	0.476	0.978	0.411	0.465	0.516	0.544	0.616	0.542	0.351	0.591	0.554	0.884	0.883
RLLVVYPGTQR [HBB_Y36_W38G]	0.703	0.42	0.984	0.526	0.918	0.512	0.739	0.836	0.544	0.484	0.683	0.48	0.539	1.05	1.27	1.48
RLLVVYPRTQR [HBB_Y36_W38R]	0.525	0.619	1.28	0.704	1.05	0.658	0.799	1.07	0.685	0.785	0.81	0.484	0.457	0.581	0.429	0.799

Sequence	phosphorylation enrichment [1]	phosphorylation enrichment [2]	phosphorylation enrichment [3]	phosphorylation enrichment [4]	phosphorylation enrichment [5]	phosphorylation enrichment [6]	phosphorylation enrichment [7]	phosphorylation enrichment [8]	phosphorylation enrichment [9]	phosphorylation enrichment [10]	phosphorylation enrichment [11]	phosphorylation enrichment [12]	phosphorylation enrichment [13]	SH2 binding enrichment [14]	SH2 binding enrichment [15]	SH2 binding enrichment [16]
RLLVVYPWPQR [HBG2_Y36_T39P]	0.703	0.512	1.7	0.518	0.97	0.917	0.494	0.617	0.527	0.489	0.606	0.456	0.443	1.46	1.67	1.8
RLQEGYDHSFF [ESD_Y258_YF]	0.57	0.422	0.794	0.508	1.12	0.538	0.728	0.85	0.52	0.427	0.364	0.824	0.457	1.01	0.622	1.1
RLQKLYLDRNL [IGFALS_Y248]	0.787	0.795	1.23	0.975	0.812	0.868	1.16	1.63	0.776	0.811	0.43	0.851	1.4	0.393	0.634	0.884
RLRIDYERVSQ [DSP_Y1542]	0.878	0.702	1.46	0.531	1.08	0.539	0.742	1.01	0.543	0.43	0.613	0.412	1.25	0.821	1.12	1.07
RLVVVYPWTQR [HBB_Y36_L33V]	1.1	0.652	1.17	0.646	1.07	0.727	0.846	1.2	0.491	0.771	1.23	0.709	0.575	0.954	1.5	1.45
RMSRSYPTGLA [ADM_Y52_S50R]	0.459	0.319	0.594	0.39	0.497	0.454	0.594	0.42	0.36	0.381	0.349	0.377	0.382	0.425	0.548	0.721
RPAFTYATLIR [FOXP3_Y342_P339A]	0.868	0.718	1.59	3.08	1.19	1.64	1.4	1.55	0.817	2.01	1.17	6.49	2.25	1.42	7.65	1.66
RPPELYALMSD [ZAP70_Y569_C564R]	1.36	1.17	2.19	2.17	2.05	15.2	1.81	2.28	1.44	1.28	3.94	1.84	14.6	1.23	0.895	0.958
RRAKGYPIYLY [ITGB2_Y125_D128Y]	1.18	0.652	0.922	0.807	0.997	0.698	0.951	0.682	0.59	0.684	0.624	1.04	0.44	0.477	0.504	0.695
RRGFLYDSDEE [MCM2_Y137_L135F]	0.458	0.501	0.761	0.764	0.629	0.589	0.679	0.812	0.429	0.512	0.686	0.625	0.397	0.455	0.564	0.802
RRGMPYGGRGD [TGM1_Y312]	0.904	0.746	0.618	0.739	0.878	0.871	0.75	0.686	0.686	0.749	0.881	0.68	0.839	0.384	0.526	0.538
RRNNSYTCYTA [SLC20A2_Y386]	0.536	0.615	1.2	0.523	1.04	0.665	1.02	1.24	0.645	0.73	0.678	0.865	1.81	0.526	1	0.915
RRNTCYASIAK [ACADM_Y353_Y352C]	0.347	0.424	0.467	0.391	0.369	0.332	0.333	0.294	0.272	0.4	0.332	0.279	0.287	3.02	7.11	0.784
RSIGEYDVLRA [PRKDC_Y2936_G2941A]	0.818	0.446	1.31	7.58	0.887	0.817	1.87	0.703	0.772	1.06	1.13	1.17	0.944	1.14	0.441	0.81
RSSKMYLKTRS [LPL_Y329]	0.885	0.541	1.24	0.758	1.07	1.53	0.585	0.827	0.8	0.631	0.792	0.452	0.484	0.553	0.712	0.83
RSSKRYLKTRS [LPL_Y329_M328R]	1.11	0.852	1.17	0.894	1.4	1.24	1.03	0.725	1.03	0.937	1.11	0.713	0.919	0.504	0.58	0.628
